Results on six molecules are retold here after US20200332015A1 (NAMAB THERAPEUTICS, published 2020).

For assay [1], the target named is T1, human CD137 expressed on Jurkat cells (human, UniProt Q07011 24-255). Put plainly: cell-based or functional assay.
The target of assay [2] is T1, human CD137 expressed on Jurkat cells. Put plainly: cell-based or functional assay. The source holds these as a separate data set.
Assay [3] has the same target. Put plainly: cell-based or functional assay. The source holds these as a separate data set.
The target in assay [4] is human PDL1-Fc chimeric protein (human, UniProt Q9NZQ7 19-238, limits assumed). Put plainly: SPR T200, antigen-Fc captured, molecule as analyte. The protocol: (§1) Affinity to PDL1 of the different species was determined by SPR measurements using a Biacore T200 device (GE Healthcare). An antibody specific for the Fc region of human IgGs was immobilized on a sensor chip (CM5 sensor chip, GE Healthcare) by amine-coupling. For all formats, with the exception of the Fc containing Morrison formats, PDL1-Fc chimeric protein from different species were captured by the immobilized antibody. Three-fold serial dilutions of the molecules specific for PDL1 (0.12-90 nM) were injected into the flow cells for three minutes and dissociation was monitored for 10 minutes. After each injection cycle, surfaces were regenerated with one injection of a 3 M MgCl₂ solution. The apparent dissociation (kd) and association (kₐ) rate constants and the apparent dissociation equilibrium constant (KD) were calculated using one-to-one Langmuir binding model. Affinity to CD137 of the different species was determined using the identical setup as for PDL1 with the exception that CD137-Fc chimeric proteins from different species were captured by the immobilized antibody.

Assay [5] has as its target T2, Fc tagged human CD137 (R&D Systems, cat. 838-4B-100) (human, UniProt Q07011 24-186).
T2 construct: also called CD137 Fc chimera; human CD137-Fc chimeric protein
Put plainly: SPR T200, antigen-Fc captured, molecule as analyte. The protocol: as §1

For assay [6], the target named is T3, human PDL1 extracellular domain (human, UniProt Q9NZQ7 19-238).
T3 construct: extracellular domain; Analyte for the Fc containing Morrison formats
Put plainly: SPR T200, Morrison format captured, ECD analyte. As for the experimental part:
as §1
The Fc containing formats were directly captured by the antibody specific for the Fc region of human IgGs. Two-fold serial dilutions of PDL1 extracellular domain or CD137 extracellular domain ranging from 90 to 0.35 nM were tested for binding to the IgG captured on the biosensor chip. After each injection cycle, surfaces were regenerated with one injection of a 3 M MgCl2 solution.

Assay [7] deals with T2, Fc tagged human CD137 (R&D Systems, …). Put plainly: SPR T200, Fc-tagged antigen captured, scFv analyte. The protocol:
(§2) Affinity of the humanized scFvs to human CD137 was determined by SPR analysis on a T200 device (Biacore, GE Healthcare). […] After each analyte injection cycle, the anti-human Fc-specific IgG was regenerated and new antigen was captured. The scFvs were injected as analyte using a dose response multi-cycle kinetic assay over the captured CD137 with concentrations of the analyte ranging from 0.19 to 45 nM (three-fold dilutions steps) diluted in running buffer. Association and dissociation time were set to 300 s and 720 s, respectively. Obtained sensorgrams were fitted using the 1:1 binding model.

Assay [8] addresses T4, cynomolgus monkey Fc-tagged CD137 (R&D Systems, cat. 9324-4B-100) (cynomolgus monkey, UniProt A9YYE7 24-186).
T4 construct: also called cynomolgus CD137-Fc chimeric protein
Put plainly: SPR T200, Fc-tagged antigen captured, scFv analyte. The protocol: as §2
Cross-reactivity to cynomolgus CD137 was measured with cynomolgus monkey Fc-tagged CD137 (R&D Systems, cat. 9324-4B-100) in a similar assay as used to measure binding to human CD137.

Assay [9] has as its target cynomolgus PDL1-Fc chimeric protein (cynomolgus, UniProt G7PSE7 19-238). Put plainly: SPR T200, antigen-Fc captured, molecule as analyte. As for the experimental part:
as §1

Where a chain is given by its changes, count along the chain named.

T4 sequence (A9YYE7 entry or part of it): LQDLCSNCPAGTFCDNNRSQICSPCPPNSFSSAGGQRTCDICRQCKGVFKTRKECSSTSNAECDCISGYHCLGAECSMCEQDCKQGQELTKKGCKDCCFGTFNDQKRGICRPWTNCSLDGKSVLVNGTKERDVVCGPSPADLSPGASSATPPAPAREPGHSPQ
Chain of cynomolgus PDL1-Fc chimeric protein (G7PSE7 entry or part of it mutant): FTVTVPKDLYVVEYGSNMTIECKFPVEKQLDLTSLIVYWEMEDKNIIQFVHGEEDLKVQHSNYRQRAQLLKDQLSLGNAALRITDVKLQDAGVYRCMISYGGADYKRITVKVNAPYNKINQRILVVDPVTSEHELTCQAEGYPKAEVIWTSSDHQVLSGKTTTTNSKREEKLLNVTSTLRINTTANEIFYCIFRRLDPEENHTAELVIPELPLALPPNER

B1: PRO1058 (38_27_C05 scDb-i/33-03-G02 sc01 scDb-o/mxr HSA (23-13-A01-sc03, sk17sh4)) (other)
chain: DIQMTQSPSSLSASVGDRVTITCQASQSINDYLAWYQQKPGKAPKLLIYKASTLASGVPSRFSGSGSGTDFTLTISSLQPEDFATYYCQQGYIITDIDNVFGTGTKVTVLGGGGGSQVQLQESGPGLVKPSETLSLTCKVSGFSFNNDYDMCWIRQPPGKGLEWIGCIDTGDGSTYYASWAKGRVTISVDSSKNQFSLKLSSVTAADTAVYYCAREAASSSGYGMGYFDLWGQGTLVTVSSGGGGSGGGGSGGGGSGGGGSIQMTQSPSSLSASVGDRVTITCQSSQSVYDNNWLAWYQQKPGKAPKLLIYRASNLASGVPSRFSGSGSGTDFTLTISSLQPEDFATYYCQGTYLSSNWYWAFGTGTKVTVLGGGGGSQVQLQESGPGLVKPSETLSLTCKVSGFSFSSGYDMCWIRQPPGKGLEWIGCVVAGSVDITYYASWAKGRVTISVDSSKNQFSLKLSSVTAADTAVYYCARKDAYSDAFNLWGQGTLVTVSSGGGGSGGGGSVVMTQSPSSLSASVGDRVTITCQASQIISSRSAWYQQKPGQPPKLLIYQASKLASGVPSRFSGSGSGTDFTLTISSLQPEDFATYYCQCTYIDSNFGAFGGGTKLTVLGGGGGSGGGGSGGGGSGGGGSEVQLVESGGGLVQPGGSLRLSCAASGFSFSSSYWICWVRQAPGKGLEWVGCVFTGDGTTYYASWAKGRFTISRDNSKNTVYLQMNSLRAEDTATYFCARPVSVYYYGMDLWGQGTLVTVSS
notes: Trispecific scDb-scFv; also called PR01058
For the molecule B1, in [1], the “EC50 NFkB-luciferase, CHO-PDL1 cells, 6 h, + HSA” value was determined as 0.0709 µg/mL and the “Top of curve fit, NFkB-luciferase, CHO-PDL1 cells, 6 h, + HSA” value was 40.1. In addition, in assay [2], the “EC50 NFkB-luciferase, CHO-PDL1 cells, 24 h, + HBA (so in the source)” value was 0.121 µg/mL and the “Top of curve fit, NFkB-luciferase, CHO-PDL1 cells, 24 h, + HBA (so in the source)” value was 20.5. For the same molecule, in [3], the “max. activation, NF-kB reporter gene, CHO-PD-L1, 24h” value is 36.2% and the “rel. IC50 (urelumab/test), NF-kB reporter gene, CHO-PD-L1, 24h” value came to 0.64 ratio. In [4], this molecule yielded a Kd of 0.16 nM, a koff of 0.00019 s⁻¹ and a kon of 1.2e+06 M⁻¹ s⁻¹. In assay [5], this molecule displayed a Kd of 1.2 nM, a koff of 0.0021 s⁻¹ and an on-rate constant (kon) of 1.7e+06 M⁻¹ s⁻¹.

B2: PRO1062 (33-03-G02 sc01 IgG1 HC with 38_27_C05 sc01 scFv, PDL1/CD137(scFv) silent Morrison) (bispecific antibody)
light: DIQMTQSPSSLSASVGDRVTITCQASQSINDYLAWYQQKPGKAPKLLIYKASTLASGVPSRFSGSGSGTDFTLTISSLQPEDFATYYCQQGYIITDIDNVFGTGTKVTVLGTVAAPSVFIFPPSDEQLKSGTASVVCLLNNFYPREAKVQWKVDNALQSGNSQESVTEQDSKDSTYSLSSTLTLSKADYEKHKVYACEVTHQGLSSPVTKSFNRGEC
heavy: QVQLQESGPGLVKPSETLSLTCKVSGFSFSSGYDMCWIRQPPGKGLEWIGCVVAGSVDITYYASWAKGRVTISVDSSKNQFSLKLSSVTAADTAVYYCARKDAYSDAFNLWGQGTLVTVSSASTKGPSVFPLAPSSKSTSGGTAALGCLVKDYFPEPVTVSWNSGALTSGVHTFPAVLQSSGLYSLSSVVTVPSSSLGTQTYICNVNHKPSNTKVDKRVEPKSCDKTHTCPPCPAPEAAGGPSVFLFPPKPKDTLMISRTPEVTCVVVDVSHEDPEVKFNWYVDGVEVHNAKTKPREEQYNSTYRVVSVLTVLHQDWLNGKEYKCKVSNKALGAPIEKTISKAKGQPREPQVYTLPPSREEMTKNQVSLTCLVKGFYPSDIAVEWESNGQPENNYKTTPPVLDSDGSFFLYSKLTVDKSRWQQGNVFSCSVMHEALHNHYTQKSLSLSPGKGGGGSGGGGSIQMTQSPSSLSASVGDRVTITCQASQSINNVLAWYQQKPGKAPKLLIYRASTLASGVPSRFSGSGSGTDFTLTISSLQPEDFATYYCQSSYGNYGDFGTGTKVTVLGGGGGSGGGGSGGGGSGGGGSQVQLQESGPGLVKPSETLSLTCKVSGFSFSNSYWICWIRQPPGKGLEWIGCTFVGSSDSTYYANWAKGRVTISVDSSKNQFSLKLSSVTAADTAVYYCARHPSDAVYGYANNLWGQGTLVTVSS
notes: also called PR01062; Morrison-H
B2: in assay [6], the Kd is 0.038 nM, the dissociation rate constant (koff) was found to be 5e-05 s⁻¹ and the association rate constant (kon) worked out at 1.3e+06 M⁻¹ s⁻¹.

B3: PRO1181 (38-02-A04-sc05, IF graft, VH4, scFv) (scFv)
scFv: DIQMTQSPSSLSASVGDRVTITCQASQSINNVLAWYQQKPGKPPKLLIYRASTLASGVPSRFSGSGSGTDFTLTISSLQPEDFATYYCQSSYGNYGDFGTGTKVTVLGGGGGSGGGGSGGGGSGGGGSQVQLQESGPGLVKPSETLSLTCKVSGFSFSNSYWICWVRQPPGKGLEWIGCTFVGSSDSTYYANWAKGRVTISVDSSKNQVSLKLSSVTAADTAVYFCARHPSDAVYGYANNLWGQGTLVTVSS
notes: VL-linker-VH
On to B3, for which, in [7], the Kd was 1.37 nM, the koff came to 0.00048 s⁻¹ and the kon was determined as 350000 M⁻¹ s⁻¹. In assay [8], the Kd was 1.36 nM, the off-rate (koff) came out at 0.00053 s⁻¹ and the kon is 388000 M⁻¹ s⁻¹.

B4: PRO1182 (38-02-A04-sc06, FULL graft, VH4, scFv) (scFv)
scFv: B3 scFv with I2L, V152A, V202K
notes: VL-linker-VH
In assay [7], B4 returned a Kd of 0.0179 nM, a koff of 2.58e-05 s⁻¹ and an on-rate (kon) of 1.44e+06 M⁻¹ s⁻¹. Moreover, in [8], the Kd was 0.0142 nM, the koff is 1.83e-05 s⁻¹ and the kon was found to be 1.29e+06 M⁻¹ s⁻¹.

B5: PRO830 (33-03-G02 CDR, scFv) (scFv)
scFv: DIQMTQSPSSLSASVGDRVTITCQASQSINDYLAWYQQKPGKAPKLLIYKASTLASGVPSRFSGSGSGTDFTLTISSLQPEDFATYYCQQGYIITDIDNVFGTGTKVTVLGGGGGSGGGGSGGGGSGGGGSQVQLQESGPGLVKPSETLSLTCKVSGFSFSSGYDMCWIRQPPGKGLEWIGCVVAGSVDITYYASWAKGRVTISVDSSKNQFSLKLSSVTAADTAVYYCARKDAYSDAFNLWGQGTLVTVSS
On to B5, for which, in [4], binding was put at a Kd of 0.076 nM, the koff worked out at 0.00016 s⁻¹ and the on-rate constant (kon) was 2.1e+06 M⁻¹ s⁻¹. Besides, in [9], the affinity, expressed as Kd, was 0.094 nM; the koff was found to be 0.0002 s⁻¹; the kon stood at 2.2e+06 M⁻¹ s⁻¹.

B6: PRO1013 (37-20-B03 CDR, VH1, scFv) (scFv)
scFv: DIQMTQSPSSLSASVGDRVTITCQASQSIGTYLAWYQQKPGKAPKLLIYRAFILASGVPSRFSGSGSGTDFTLTISSLQPEDFATYYCQSNFYSDSTTIGPNAFGTGTKVTVLGGGGGSGGGGSGGGGSGGGGSQVQLVQSGAEVKKPGASVKVSCKASGFSFNSDYWIYWVRQAPGQGLEWMGSIYGGSSGNTQYASWAQGRVTMTRDTSISTAYMELSSLRSEDTAVYYCARGYVDYGGATDLWGQGTLVTVSS
notes: its row bears no clone label
In [4], B6 showed a Kd of 0.045 nM, a koff of 0.00027 s⁻¹ and a kon of 6e+06 M⁻¹ s⁻¹. For the same molecule, in assay [9], the Kd was determined as 0.053 nM, the koff was found to be 0.00032 s⁻¹ and the kon stood at 5.9e+06 M⁻¹ s⁻¹.

Broadly, the Kd is the equilibrium constant for the complex coming apart. One may read the koff as a measure of how fast the partners let go of each other. For orientation: kon means the rate constant with which the complex forms.
